Molecular target: the molecule itself
Assay: cryo-EM structure

B1: HCMV UL141 soluble ectodomain (residues 30-278) with C-terminal 8X His-Tag (domain or fragment)
chain: SFPFATADIAEKMWAENYETTSPAPVLVAEGEQVTIPCTVMTHSWPMVSIRARFCRSHDGSDELILDAVKGHRLMNGLQYRLPYATWNFSQLHLGQIFSLTFNVSTDTAGMYECVLRNYSHGLIMQRFVILTQLETLSRPDEPCCTPALGRYSLGDQIWSPTPWRLRNHDCGMYRGFQRNYFYIGRADAEDCWKPACPDEEPDRCWTVIQRYRLPGDCYRSQPHPPKFLPVTPAPPADIDTGMSPWATR
- stoichiometry N: 2

From paper PMC11482907 (bioRxiv, 2024)
